The IC50 is the point on the concentration scale where inhibition reaches its midpoint. A word on the Kd: it is a measure of binding affinity in units of concentration.

Like-named read-outs stand apart in the source and are kept apart here. Positions of bridges follow the written chain, without caps; N, C: chain ends. *: point of attachment. Boc = CC(C)(C)OC(=O)*

Consider five molecules from US8710008B2, “Compounds, compositions and use” (Universitetet I Oslo, priority 2008, dated 2014).

In test [1] the target is T1, AQP4 (Homo sapiens, UniProt P55087). The settings on record: cited from earlier work.
T1 sequence (P55087 whole entry, species assumed): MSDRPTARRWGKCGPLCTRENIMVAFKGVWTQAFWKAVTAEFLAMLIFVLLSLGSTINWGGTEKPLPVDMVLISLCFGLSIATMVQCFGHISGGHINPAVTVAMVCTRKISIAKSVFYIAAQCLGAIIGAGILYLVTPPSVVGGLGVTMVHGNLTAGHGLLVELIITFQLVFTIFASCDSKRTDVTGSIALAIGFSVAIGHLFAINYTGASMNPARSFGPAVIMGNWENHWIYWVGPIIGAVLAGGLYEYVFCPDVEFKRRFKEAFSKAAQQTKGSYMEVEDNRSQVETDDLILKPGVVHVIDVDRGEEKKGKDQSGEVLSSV
For the next test, the target named is T2, AQP1 (Homo sapiens, UniProt P29972).
T2 sequence (P29972 1-269): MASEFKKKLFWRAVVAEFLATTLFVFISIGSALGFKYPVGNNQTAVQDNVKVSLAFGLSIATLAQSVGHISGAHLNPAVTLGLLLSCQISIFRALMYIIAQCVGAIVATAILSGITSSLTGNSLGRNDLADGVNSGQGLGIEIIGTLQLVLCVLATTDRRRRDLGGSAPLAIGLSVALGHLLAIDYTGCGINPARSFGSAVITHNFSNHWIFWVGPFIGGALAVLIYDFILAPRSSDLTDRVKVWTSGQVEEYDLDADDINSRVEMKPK
To be noted: cited from earlier work.

Test [2] deals with T1, AQP4. The settings on record: liposome-based assay; cited from earlier work.
The subject of test [3] is crude membranes from rat cerebellum. Put plainly: Radioligand binding assay of [3H]peptide on crude membranes from rat cerebellum. Here is the method:
The radiolabelled compound denoted [3H]peptide was custom synthesised from the unsaturated precursor 29 (Example 27) by Perkin Elmer Health Sciences Inc., 549 Albany Street, Boston, Mass. 02118, U.S.A. The radioactive compound was received as an EtOH solution. The total activity of the sample was 1 mCi. and the radiological concentration was 2 mCi/mL. The specific activity was 42.9 Ci/mmol and the radiochemical purity (determined by HPLC) 99.8%. The specific activity was determined by mass spectrometry.
Female Wistar rats weighing 250-300 g (Mollegaard, Ejby, Denmark) were used. Experimental protocols conform to National Institutes of Health guidelines for the care and use of animals.
Brain cerebella (1:5 wt/vol) in ice cold 0.3 M sucrose, 50 mM Hepes, pH 7.4, 2 mM EDTA, protease inhibitors (Complete; Roche, Mannheim, Germany) were homogenised in clay-beads-containing tubes by Fastprep shaker and centrifuged at 1,000 g for 10 min at 4° C. The supernatant was spun down at 42,000 g for 60 min at 4° C. […] Protein concentration was determined by the DC Protein Assay Kit (Bio-Rad). […]
Binding data were analysed by non-linear regression using Microsoft Excel with the Solver add-in. The non-specific binding was assumed to be linear as a function of the concentration of free [^3H]peptide and analysed by linear regression. […]

For test [4], the target named is crude membranes from rat cerebellum (rat). Put plainly: radioligand saturation binding, filter assay, crude membranes.
For test [5] the target is unchanged. Put plainly: radioligand saturation binding, non-linear regression, unweighted fit.
The target is the same in test [6]. Put plainly: radioligand saturation binding, non-linear regression, fit weighted 1/Y.
The target is the same in test [7]. Put plainly: radioligand saturation binding, non-linear regression, fit weighted 1/Y^2.

On to `CC(=O)Nc1nnc(S(N)(=O)=O)s1` [Acetazolamide], for which, on AQP4 [1] (Y. Tanimura et al. 2009), the “Effect on water permeation through AQP4” value was “reversibly inhibits”. The IC50 on AQP4 [1] (Y. Tanimura et al. 2009, read-out: IC50 of inhibition of water permeation through AQP4) is over 1000 µM. Also, the “Effect on water permeation through AQP1” value at AQP1 (Y. Tanimura et al. 2009) is “not through AQP1”.

Turning to `[Cl][Hg][Cl]` [mercury chloride], the “Effect on AQP4” value on AQP4 [2] is “inhibit AQP4”.

Take “[^3H]peptide: radiolabelled compound custom synthesised from the unsaturated precursor 29 (Example 27); specific activity 42.9 Ci/mmol (Boc-PPSVVSG-OMe; bridge 3-6; not fully specified (bridges); also: tritium label)”: the Specific binding in test [3] (difference without and with 100 μM unlabelled peptide) was 0.5-1 pmol/mg membrane protein. The Kd in test [3] (specific binding, non-specific defined with 100 μM unlabelled peptide, read-out: Kd value (affinity)) was 0.1 to 0.2 µM.

Take `CC[N+](CC)(CC)CC` [tetraethylammonium ions, tetraethylammonium]: the “Effect on AQP4” value at AQP4 [1] (up to 10 mmolar concentration, B. Yang et al. 2006) is “no effect”. Also, the “Effect on AQP1” value on AQP1 (R. Søgaard et al. 2008) is “no effect”.

As to Boc-PPSVVSG-OMe (bridge 3-6; also: tritium label), the Kd in test [4] is 0.1 to 0.2 µM; in test [5], 0.107 µM; in test [6], 0.0927 µM; in test [7] it was 0.0927 µM. Also, the specific binding (Bmax) (pmol/mg membrane protein) in test [4] was 0.5 to 1. The results for the Bmax in test [5], in test [6] and in test [7] were 2140 cpm, 1920 cpm and 1920 cpm, respectively. For the same molecule, the figures for the Bmax (fmol/mg protein) in test [5], in test [6] and in test [7] were 1120, 1000 and 1000, respectively.
